Assay results: patent US20180030144A1 (INNATE PHARMA, published 2018)
Where a chain is given by its changes, count along the chain named. Names may count otherwise.

T1: human CD73 expressed at the cell surface (human, UniProt P21589 27-549)
T1 sequence: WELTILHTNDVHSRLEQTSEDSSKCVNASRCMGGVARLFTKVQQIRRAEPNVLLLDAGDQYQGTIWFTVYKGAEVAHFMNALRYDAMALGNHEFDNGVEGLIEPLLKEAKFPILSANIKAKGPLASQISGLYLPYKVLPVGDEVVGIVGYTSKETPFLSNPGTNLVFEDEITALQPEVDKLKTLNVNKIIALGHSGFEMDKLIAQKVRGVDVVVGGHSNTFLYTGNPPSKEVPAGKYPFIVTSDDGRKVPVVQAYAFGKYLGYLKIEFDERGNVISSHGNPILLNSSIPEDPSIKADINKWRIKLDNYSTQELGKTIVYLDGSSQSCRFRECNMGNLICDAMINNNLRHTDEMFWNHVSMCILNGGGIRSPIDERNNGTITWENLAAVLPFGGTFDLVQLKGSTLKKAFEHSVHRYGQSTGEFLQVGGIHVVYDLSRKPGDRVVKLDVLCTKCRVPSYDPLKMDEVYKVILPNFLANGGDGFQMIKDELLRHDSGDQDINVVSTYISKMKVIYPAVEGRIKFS

T2: recombinant human CD73-His extracellular domain protein (soluble dimer) (human, UniProt P21589 27-547)
T2 construct: Purified as a dimer; also called huCD73; soluble recombinant human CD73
T2 sequence: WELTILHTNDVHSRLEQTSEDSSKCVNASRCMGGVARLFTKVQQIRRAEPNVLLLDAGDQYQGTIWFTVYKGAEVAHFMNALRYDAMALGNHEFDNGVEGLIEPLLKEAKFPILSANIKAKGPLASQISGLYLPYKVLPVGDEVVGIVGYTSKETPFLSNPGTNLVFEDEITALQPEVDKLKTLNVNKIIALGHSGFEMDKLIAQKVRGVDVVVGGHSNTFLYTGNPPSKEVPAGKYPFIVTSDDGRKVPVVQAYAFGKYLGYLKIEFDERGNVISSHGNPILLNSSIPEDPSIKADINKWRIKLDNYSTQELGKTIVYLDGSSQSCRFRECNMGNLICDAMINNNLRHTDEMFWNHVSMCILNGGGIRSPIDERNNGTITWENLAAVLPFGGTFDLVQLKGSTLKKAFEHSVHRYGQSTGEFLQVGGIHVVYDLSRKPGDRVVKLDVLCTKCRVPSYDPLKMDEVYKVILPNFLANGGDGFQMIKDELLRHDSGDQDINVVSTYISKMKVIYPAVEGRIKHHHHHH

B1: antibody 11E1 (antibody, human IgG1, V domains shown)
VH: EIQLQQSGPELVKPGASVKVSCKASGYAFTSYNMYWVKQSHGKSLEWIGYIDPYNGGTSYNQKFKGKATLTVDKSSSTAYMHLNSLTSEDSAVYYCARGYGNYKAWFAYWGQGTLVTVSA
VL: DAVMTQTPKFLLVSAGDRVTITCKASQSVTNDVAWYQQKPGQSPKLLIYYASNRYTGVPDRFTGSGYGTDFTFTISTVQAEDLAVYFCQQDYSSLTFGAGTKLELK
notes: Produced as chimeric human IgG1 with heavy chain N297Q (Kabat EU numbering); also called 1E11
B2: antibody 3C12 (antibody, human IgG1, V domains shown)
VH: B1 VH with E1Q, T30A, Y35N, E46D, T58S, Q62L, K63T, S77T
VL: DVVMTQTPKFLLVSAGDRVTITCKASQSVSNDVAWYQQKPGQSPKLLIYYASTRYTGVPDRFTGSGYGTDFTFTISTVQAEDLAVYFCQQDYSSLTFGAGTKLELKR
notes: Produced as chimeric human IgG1 with heavy chain N297Q (Kabat EU numbering); RTVAAP)
B3: antibody 6E1 (antibody, human IgG1, V domains shown)
VH: B1 VH with I2F, S44R, T58S, S85N, G101N
VL: B1 VL with D1S, A2I, V78M
notes: Produced as chimeric human IgG1 with heavy chain N297Q (Kabat EU numbering)

What was measured:
[1] = target: T1, human CD73 expressed at the cell surface; assay: cell-based or functional assay
[2] = target: T1, human CD73 expressed at the cell surface; assay: flow cytometry on MDA-MB-231 cells, medium (no APCP)
Protocol: (§1) MDA-MB-231 cells are available from ATCC (reference HTB-26). 10⁵ cells resuspended in PBS/0.2% BSA/0.02% NaN3 (named “staining buffer”) are distributed into round bottom 96W-microplates. Dose-range of anti-CD73 antibodies was added to the plates and cells are incubated for 45 min at 4° C. Cells were washed three times in staining buffer by spinning plates at 400 g for 3 min at 4° C. PE-coupled goat anti-mouse or goat anti-human IgG Fc fragment secondary antibodies (Beckman Coulter) diluted in staining buffer were added to the cells and plates are incubated for 30 additional minutes at 4° C. Cells were washed three times as described above and analyzed on an Accury C6 flow cytometer equipped with an HTFC plate reader.
(§2) Cells were pre-incubated at 37° C. for 30 minutes in the presence or not of 200 μM adenosine 5′-(α,β-methylene)diphosphate (APCP), followed by addition of antibodies. APCP is an analog of ADP and binds irreversibly to the active site of CD73. When bound by APCP, CD73 changes conformation from an “open” conformation to a “closed” conformation. mAbs 11E1, 8C7, 3C12 and 6E1 bound MDA-MB-231 cells with good affinity both in the presence and absence of APCP. In the presence of APCP, the EC50 was similar to that observed in the absence of APCP. The plateau for maximal binding of 11E1, 8C7, 3C12 and 6E1 was higher in the absence of APCP than in the presence of APCP, while the inverse was true for AD2.

[3] = target: T1, human CD73 expressed at the cell surface; assay: flow cytometry on MDA-MB-231 cells pre-incubated with 200 µM APCP
Protocol: as §1, §2

[4] = target: T1, human CD73 expressed at the cell surface; assay: flow cytometry titration on a human-CD73-expressing recombinant host cell line, median of fluorescence
[5] = target: T1, human CD73 expressed at the cell surface; assay: cell-based or functional assay; remark: listed apart in the source
[6] = target: T2, recombinant human CD73-His …; assay: ELISA, plate-coated recombinant human CD73
Protocol: 5 μg/ml of recombinant human CD73 protein (IPH, isoform E6) was coated on MaxiSorp ELISA plates (Nunc) in PBS, overnight at 4° C. Plates were washed 5 times in washing buffer (PBS, 0.05% Tween20) and unspecific sites were saturated by adding 200 μl/w TBS starting block buffer (Thermo Ficher). Dose-range of anti-CD73 antibodies were incubated for 2 h at 37° C. Plates were washed 5 times in washing buffer and HRP-coupled goat anti-human or goat anti-mouse IgG Fc fragment secondary antibody (Bethyl, 1/50000) was added for 1 hr at RT to detect bound anti-CD73 antibodies. […] The enzymatic reaction was stopped by adding HCl 1M and O.D. was measured at 450 nm. Optical density vs. anti-CD73 Ab concentration was plotted on graphs and EC50 is calculated using GraphPad Prism software.

[7] = target: T2, recombinant human CD73-His …; assay: cell-based or functional assay

| Binder | decrease of the enzymatic activity of cellular CD73 (MDA-MB-231 cells) [1] [%] | EC50 [2] [µg/mL] | EC50 [3] [µg/mL] | EC50 (read off the curve) [4] [µg/mL] | EC50 for neutralization of the enzymatic activity of cellular CD73 (MDA-MB-231 cells, free phosphate from AMP) [5] [µg/mL] | EC50 [6] [µg/mL] | EC50 for CD73 blockade (enzymatic activity of soluble recombinant human CD73-his) [7] [µg/mL] |
| --- | --- | --- | --- | --- | --- | --- | --- |
| B1 | > 75 | 0.0611 | 0.0375 | ~0.4 | 0.195 | 0.012 | 0.41 |
| B2 | > 75 | 0.0572 | 0.0431 | ~0.6 | 0.21 | 0.014 | 0.41 |
| B3 | > 75 | 0.0584 | 0.0395 | ~0.4 | 0.209 | 0.014 | 0.33 |
